Experimental data as given in article PMC3936483 (The Biochemical journal, 2008).
Residue numbers refer to the chain shown, from its start. In names and notes the source's numbering stands. Several values for one entry are separate records, joined by “and”; a condition that tells them apart may be missing. Equal entries are not always repeated. Where two headings read alike, the source gives them in different places.

B1: CTRP6 (C1q/TNF-related protein 6), C-terminal FLAG- or HA-tagged, full length (natural protein, UniProt Q6IR41 25-264, looked up)
chain: VPTEETTFGESVASHLPKGCRRCCDPEDLMSSDDTVQAPVSPYVLPEVRPYINITILKGDKGDRGPTGTPGKPGKNGTRGDRGSQGVKGDKGQAGSPGSSCQTHYSAFSVGRKTGLHSSENFLSLLFDRVFVNTDGHFDMATGSFVAPLRGLYFFSLNVHSWNYKETYVHIVHNEQAVVILYAQPSERSIMQSQSVMLPLVPGDRVWVRLFKRERENGIYSDDVDTYITFSGHLIKAEDN
modifications: N-linked glycans (sites not given)
B2: CTRP6ΔCys (C44A/C47A/C48A/C125A), C-terminal FLAG- or HA-tagged (natural protein, UniProt Q6IR41 25-264, looked up)
chain: B1 chain with C20A, C23A, C24A, C101A
B3: CTRP3ΔCys (C39A/C42A/C43A), C-terminal FLAG-tagged (natural protein, UniProt Q9ES30 23-246, looked up)
chain: QDEYMESPQAGGLPPDASKAAHGDYGFRGYQGPPGPPGPPGIPGNHGNNGNNGATGHEGAKGEKGDKGDLGPRGERGQHGPKGEKGYPGVPPELQIAFMASLATHFSNQNSGIIFSSVETNIGNFFDVMTGRFGAPVSGVYFFTFSMMKHEDVEEVYVYLMHNGNTVFSMYSYETKGKSDTSSNHAVLKLAKGDEVWLRMGNGALHGDHQRFSTFAGFLLFETK
B4: CTRP3 (C1q/TNF-related protein 3), C-terminal FLAG- or HA-tagged, full length (natural protein, UniProt Q9ES30 23-246, looked up)
chain: B3 chain with A17C, A20C, A21C
modifications: carbohydrate moieties (type and sites not determined; none N-linked)
B5: CTRP5ΔCys (C28A/C98A), C-terminal FLAG-tagged (natural protein, UniProt Q8K479 16-243, looked up)
chain: SPPLDDNKIPSLAPGQPGLPGTPGHHGSQGLPGRDGRDGRDGAPGAPGEKGEGGRPGLPGPRGEPGPRGEAGPMGAIGPAGEASVPPRSAFSAKRSESRVPPPADTPLPFDRVLLNEQGHYDPTTGKFTCQVPGVYYFAVHATVYRASLQFDLVKNGQSIASFFQYFGGWPKPASLSGGAMVRLEPEDQVWVQVGVGDYIGIYASIKTDSTFSGFLVYSDWHSSPVFA
B6: serum CTRP5 (natural protein, mouse (endogenous in C57BL/6 serum), UniProt Q8K479 16-243, looked up)
chain: B5 chain with A13C, A83C
B7: CTRP5 (C1q/TNF-related protein 5), C-terminal FLAG- or HA-tagged, full length (natural protein, UniProt Q8K479 16-243, looked up)
chain: B5 chain with A13C, A83C
modifications: carbohydrate moieties (type and sites not determined; none N-linked)
B8: CTRP1ΔCys (C73A/C76A/C77A/C141A), C-terminal FLAG-tagged (natural protein, mouse, UniProt Q9QXP7 26-281, looked up)
chain: LVPRVQEEQQEWEETEELPSPLDPVTRPEETREKYSPRQGEDLPTSRAYRAADPSTPVYQTIPPPQINITILKGEKGDRGDRGLQGKYGKIGSTGPRGHVGPKGQKGSIGAPGNHAKSQYAAFSVGRKKALHSNDYFQPVVFDTEFVNLYKHFNMFTGKFYCYVPGIYFFSLNVHTWNQKETYLHIMKNEEEVVILYAQVSDRSIMQSQSLMMELREEDEVWVRLFKGERENAIFSDEFDTYITFSGYLVKPASEP
B9: CTRP1 (C1q/TNF-related protein 1), C-terminal FLAG- or HA-tagged, full length (natural protein, mouse, UniProt Q9QXP7 26-281, looked up)
chain: B8 chain with A48C, A51C, A52C, A116C
modifications: N-linked glycans (site not given)
B10: adiponectin, C-terminal FLAG- or HA-tagged, full length (natural protein, UniProt Q60994 18-247, looked up)
chain: EDDVTTTEELAPALVPPPKGTCAGWMAGIPGHPGHNGTPGRDGRDGTPGEKGEKGDAGLLGPKGETGDVGMTGAEGPRGFPGTPGRKGEPGEAAYVYRSAFSVGLETRVTVPNVPIRFTKIFYNQQNHYDGSTGKFYCNIPGLYYFSYHITVYMKDVKVSLFKKDKAVLFTYDQYQEKNVDQASGSVLLHLEVGDQVWLQVYGDGDHNGLYADNVNDSTFTGFLLYHDTN
B11: CTRP10 (C1q/TNF-related protein 10), C-terminal FLAG- or HA-tagged, full length (natural protein, mouse, UniProt Q8CFR0 22-287, looked up)
chain: HYEMLGTCRMICDPYSVAPAGGPAGAKAPPPGPSTAALEVMQDLSANPPPPFIQGPKGDPGRPGKPGPRGPPGEPGPPGPRGPPGEKGDSGRPGLPGLQLTTSAAGGVGVVSGGTGGGGDTEGEVTSALSAAFSGPKIAFYVGLKSPHEGYEVLKFDDVVTNLGNHYDPTTGKFSCQVRGIYFFTYHILMRGGDGTSMWADLCKNGQVRASAIAQDADQNYDYASNSVVLHLDSGDEVYVKLDGGKAHGGNNNKYSTFSGFLLYPD
modifications: carbohydrate moieties (type and sites not determined; none N-linked)
B12: CTRP10ΔCys (C29A/C33A), C-terminal FLAG-tagged (natural protein, mouse, UniProt Q8CFR0 22-287, looked up)
chain: B11 chain with C8A, C12A

Key:
SEC [1] = target: the molecule itself; test: SEC
SEC [2] = target: the molecule itself; test: SEC; remark: listed apart in the source

Protein | stoichiometry N (SEC [1]) | stoichiometry N (SEC [2])
B1 | ~6 and 3 | –
B2 | 3 | –
B3 | 3 | –
B4 | 3 and ~6 | –
B5 | 3 | –
B6 | – | 3
B7 | 3 and ~6 | –
B8 | 3 | –
B9 | 3 | –
B10 | 3 and 6 | –
B11 | 3 and ~6 | –
B12 | 3 | –
